For experiment [1], the target named is Rim1-C-terminal 6xHis (yeast). As to the kind of experiment: cross-linking; SDA (NHS-diazirine) 50 uM, 3 uM Rim1 tetramer, 25 mM HEPES, 100 mM NaCl, 10% glycerol, pH 7.5, NHS step 25 °C 30 min, then UV 365 nm; SDS-PAGE; bands analysed by nanoLC-LTQ-Orbitrap MS (XLPM).
The target in experiment [2] is Rim1-C-terminal 6xHis (yeast). The experiment in a line: cross-linking; DSS 2.5 mM, 3 uM Rim1 tetramer, 25 mM HEPES, 100 mM NaCl, 10% glycerol, pH 7.5, room temperature 40 min; products resolved on 5-15% SDS-PAGE; bands digested and analysed by nanoLC-LTQ-Orbitrap MS (XLPM, StavroX).

By stoichiometry N is commonly meant the number of molecules, sites or subunits per partner or assembly.

As for Rim1-C-terminal 6xHis (natural protein), the stoichiometry N in experiment [1] and in experiment [2] was 4 each time.
